Target: HLA-A*24 (peptide-receptive MHC class I monomer of the UV-ligand exchange assay) (human)
Test: UV-ligand exchange with anti-b2m ELISA

YYKSTSSAF [Peptide SEQ ID NO: 218 (…)] gave a peptide exchange yield of 50 to 75%.

TFSVSSHLF [Peptide SEQ ID NO: 222 (…)] was tested, and the peptide exchange yield was 50 to 75%.

QYLGQIQHI [Peptide SEQ ID NO: 268 (…)] gave a peptide exchange yield of 50 to 75%.

Binder TYELRYFQI [Peptide SEQ ID NO: 204 (…)] has a peptide exchange yield of over 75%.

Work on YFIDSTNLKTHF [Peptide SEQ ID NO: 269 (…)] yielded a peptide exchange yield of 50 to 75%.

VYQGHTALL [Peptide SEQ ID NO: 277 (…)] showed a peptide exchange yield of over 75%.

For VYWDSAGAAHF [Peptide SEQ ID NO: 202 (…)], the peptide exchange yield was over 75%.

For LYITEPKTI [Peptide SEQ ID NO: 287 (…)], the peptide exchange yield was 50 to 75%.

In the case of HYPPVQVLF [Peptide SEQ ID NO: 285 (…)], the peptide exchange yield is reported as 50 to 75%.

Work on NYYEVHKELF [Peptide SEQ ID NO: 270 (…)] yielded a peptide exchange yield of 50 to 75%.

YYGPSLFLL [Peptide SEQ ID NO: 200 (…)] gave a peptide exchange yield of 50 to 75%.

In the case of AYVVFVSTL [Peptide SEQ ID NO: 207 (…)], the peptide exchange yield is reported as 20 to 49%.

With EYSLFPGQVVI [Peptide SEQ ID NO: 197 (…)] the peptide exchange yield was 50 to 75%.

Binder PYRLIFEKF [Peptide SEQ ID NO: 281 (…)] has a peptide exchange yield of 20 to 49%.

In the case of IYATEAHVF [Peptide SEQ ID NO: 201 (…)], the peptide exchange yield is reported as 50 to 75%.

With RYAEEVGIF [Peptide SEQ ID NO: 199 (…)] the peptide exchange yield was 50 to 75%.

Work on TYKDEGNDYF [Peptide SEQ ID NO: 209 (…)] yielded a peptide exchange yield of 50 to 75%.

From patent publication US20170189511A1
